The values that follow come from US20250135018A1.

A value given as a limit tells only on which side of the number the result lay.

Holding throughout (assay): cell-based or functional assay
One assay deals with NTB-A (UniProt Q96DU3).
Another assay concerns the target CD48 (UniProt P09326).
Another assay deals with T1, CD70 (UniProt P32970).
T1 sequence (looked up): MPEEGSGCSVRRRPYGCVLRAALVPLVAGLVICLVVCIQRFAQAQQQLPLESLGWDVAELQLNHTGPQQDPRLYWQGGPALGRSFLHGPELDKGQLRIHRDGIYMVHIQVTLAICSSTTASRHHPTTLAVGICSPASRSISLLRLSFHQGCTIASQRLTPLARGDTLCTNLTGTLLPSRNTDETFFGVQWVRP

Sequence of NTB-A (Q96DU3 22-332 limits assumed): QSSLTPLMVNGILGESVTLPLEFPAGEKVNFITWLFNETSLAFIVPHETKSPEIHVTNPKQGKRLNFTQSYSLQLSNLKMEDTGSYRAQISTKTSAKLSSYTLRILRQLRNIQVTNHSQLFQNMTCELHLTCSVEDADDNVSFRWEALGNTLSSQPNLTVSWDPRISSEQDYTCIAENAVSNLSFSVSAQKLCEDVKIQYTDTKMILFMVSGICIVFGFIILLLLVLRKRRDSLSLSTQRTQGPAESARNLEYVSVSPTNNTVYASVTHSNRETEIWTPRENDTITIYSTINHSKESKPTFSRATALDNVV
Sequence of CD48 (P09326 27-220 limits assumed): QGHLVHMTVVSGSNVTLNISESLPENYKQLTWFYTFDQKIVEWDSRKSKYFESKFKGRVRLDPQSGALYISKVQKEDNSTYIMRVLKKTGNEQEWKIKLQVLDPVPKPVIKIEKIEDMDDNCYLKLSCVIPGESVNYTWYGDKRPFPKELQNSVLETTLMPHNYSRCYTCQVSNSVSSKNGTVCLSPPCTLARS

For the molecule “Ag5-Ex_4-1: h20F3 anti-NTB-A antibody conjugated to MP-PEG4-Val-Lys-Gly-7-MAD-MDCPT, DAR=8”, in the assay with NTB-A, the IC50 of cell growth (CellTiter-Glo, 96 h), EJM cells amounted to 0.15 µg/mL; the IC50 of cell growth (CellTiter-Glo, 96 h), KMM-1 cells worked out at 0.177 µg/mL; the IC50 of cell growth (CellTiter-Glo, 96 h), MM.1R cells is 0.005 µg/mL; the IC50 of cell growth (CellTiter-Glo, 96 h), NCI-H929 cells came out at 0.08 µg/mL. Also, in the assay with NTB-A, the IC50 of cell growth (CellTiter-Glo, 96 h), U-266 cells came out at 0.097 µg/mL; the percent cells remaining at highest concentration tested, EJM cells was determined as 31%; the percent cells remaining at highest concentration tested, KMM-1 cells was determined as 16%; the percent cells remaining at highest concentration tested, MM.1R cells was 0%. In the assay with NTB-A, this molecule showed a percent cells remaining at highest concentration tested, NCI-H929 cells of 2% and a percent cells remaining at highest concentration tested, U-266 cells of 28%.

On to “Ag4-Ex_4-1: hMEM102 anti-CD48 antibody conjugated to MP-PEG4-Val-Lys-Gly-7-MAD-MDCPT, DAR=8”, for which, in the assay with CD48, the IC50 of cell growth (CellTiter-Glo, 96 h), EJM cells was found to be 0.053 µg/mL; the IC50 of cell growth (CellTiter-Glo, 96 h), KMM-1 cells came to 0.018 µg/mL; the IC50 of cell growth (CellTiter-Glo, 96 h), MM.1R cells is 0.004 µg/mL; the IC50 of cell growth (CellTiter-Glo, 96 h), NCI-H929 cells was determined as 0.006 µg/mL. Moreover, in the assay with CD48, the IC50 of cell growth (CellTiter-Glo, 96 h), U-266 cells came out at 0.017 µg/mL; the percent cells remaining at highest concentration tested, EJM cells is 27%; the percent cells remaining at highest concentration tested, KMM-1 cells stood at 16%; the percent cells remaining at highest concentration tested, MM.1R cells turned out to be 1%. In addition, in the assay with CD48, the percent cells remaining at highest concentration tested, NCI-H929 cells came to 2% and the percent cells remaining at highest concentration tested, U-266 cells turned out to be 38%.

Turning to “Ag5-Ex_8-1a: h20F3 anti-NTB-A antibody conjugated to MC-GGFG-NHCH2-DXd(1), DAR=8”, in the assay with NTB-A, the IC50 of cell growth (CellTiter-Glo, 96 h), EJM cells worked out at 7.19 µg/mL; the IC50 of cell growth (CellTiter-Glo, 96 h), KMM-1 cells stood at 5.29 µg/mL; the IC50 of cell growth (CellTiter-Glo, 96 h), MM.1R cells came out at 0.177 µg/mL; the IC50 of cell growth (CellTiter-Glo, 96 h), NCI-H929 cells was determined as 2.93 µg/mL. In the assay with NTB-A, this molecule gave an IC50 of cell growth (CellTiter-Glo, 96 h), U-266 cells above 10 µg/mL and a percent cells remaining at highest concentration tested, KMM-1 cells of 45%.

For “Ag4-Ex_8-1a: hMEM102 anti-CD48 antibody conjugated to MC-GGFG-NHCH2-DXd(1), DAR=8”, in the assay with CD48, the IC50 of cell growth (CellTiter-Glo, 96 h), EJM cells amounted to 2.79 µg/mL; the IC50 of cell growth (CellTiter-Glo, 96 h), KMM-1 cells was determined as 0.075 µg/mL; the IC50 of cell growth (CellTiter-Glo, 96 h), MM.1R cells was determined as 0.009 µg/mL; the IC50 of cell growth (CellTiter-Glo, 96 h), NCI-H929 cells worked out at 0.009 µg/mL. In the assay with CD48, this molecule yielded an IC50 of cell growth (CellTiter-Glo, 96 h), U-266 cells above 10 µg/mL; a percent cells remaining at highest concentration tested, EJM cells of 0%; a percent cells remaining at highest concentration tested, KMM-1 cells of 34%; a percent cells remaining at highest concentration tested, MM.1R cells of 0%. The molecule further displayed a percent cells remaining at highest concentration tested, NCI-H929 cells in the assay with CD48 of 3%.

B1: Ag3-Ex_4-1: h1F6 anti-CD70 antibody conjugated to MP-PEG4-Val-Lys-Gly-7-MAD-MDCPT, DAR=8 (antibody, INN chains, looked up, V domains shown)
VH: QVQLVQSGAEVKKPGASVKVSCKASGYTFTNYGMNWVRQAPGQGLKWMGWINTYTGEPTYADAFKGRVTMTRDTSISTAYMELSRLRSDDTAVYYCARDYGDYGMDYWGQGTTVTVSS
VL: DIVMTQSPDSLAVSLGERATINCRASKSVSTSGYSFMHWYQQKPGQPPKLLIYLASNLESGVPDRFSGSGSGTDFTLTISSLQAEDVAVYYCQHSREVPWTFGQGTKVEIK
modifications: MP-PEG4-Val-Lys-Gly-MDCPT conjugate, DAR 8
Take B1: in the assay with CD70, the IC50 of cell growth (CellTiter-Glo, 96 h), 786-O cells is 0.037 µg/mL; the IC50 of cell growth (CellTiter-Glo, 96 h), Caki-1 cells turned out to be 0.036 µg/mL; the IC50 of cell growth (CellTiter-Glo, 96 h), Raji cells was found to be 1.13 µg/mL; the IC50 of cell growth (CellTiter-Glo, 96 h), UM-RC-3 cells was 0.016 µg/mL. In the assay with CD70, this molecule registered a percent cells remaining at highest concentration tested, 786-O cells of 18%; a percent cells remaining at highest concentration tested, Caki-1 cells of 24%; a percent cells remaining at highest concentration tested, Raji cells of 45%; a percent cells remaining at highest concentration tested, UM-RC-3 cells of 30%.

B2: Ag3-Ex_8-1a: h1F6 anti-CD70 antibody conjugated to MC-GGFG-NHCH2-DXd(1), DAR=8 (antibody, INN chains, looked up, V domains shown)
VH: QVQLVQSGAEVKKPGASVKVSCKASGYTFTNYGMNWVRQAPGQGLKWMGWINTYTGEPTYADAFKGRVTMTRDTSISTAYMELSRLRSDDTAVYYCARDYGDYGMDYWGQGTTVTVSS
VL: DIVMTQSPDSLAVSLGERATINCRASKSVSTSGYSFMHWYQQKPGQPPKLLIYLASNLESGVPDRFSGSGSGTDFTLTISSLQAEDVAVYYCQHSREVPWTFGQGTKVEIK
modifications: MC-GGFG-DXd conjugate, DAR 8
In the assay with CD70, B2 came in with an IC50 of cell growth (CellTiter-Glo, 96 h), 786-O cells above 10 µg/mL; an IC50 of cell growth (CellTiter-Glo, 96 h), Caki-1 cells above 10 µg/mL; an IC50 of cell growth (CellTiter-Glo, 96 h), Raji cells of 5.56 µg/mL; an IC50 of cell growth (CellTiter-Glo, 96 h), UM-RC-3 cells of 0.065 µg/mL. For the same molecule, in the assay with CD70, the percent cells remaining at highest concentration tested, 786-O cells amounted to 54%; the percent cells remaining at highest concentration tested, Caki-1 cells came to 68%; the percent cells remaining at highest concentration tested, UM-RC-3 cells was determined as 40%.
